The source of these data is patent US20260347496 (published 2026).

B1: huG14-204 (antibody, V domains shown)
VH: EVQLVESGGGLVKPGGSLRLSCAASGLTFSNYWMNWVRQAPGKGLEWVALIRLYSDNYAIHYAESVKGRFTISRDDSKSTVYLQMNSLKTEDTAVYYCTTGTDYWGQGTTVTVSS
VL: DVVMTQSPLSLPVTPGRPASISCKSSHSLLYSNGETYLNWLLQKPGQSPQRLIYLVSKLDSGVPDRFSGSGSGTDFTLKISRVEAEDLGVYYCIQGTYFPYTFGQGTKLEIK
B2: huG14-222 (antibody, V domains shown)
VH: B1 VH with Y104N
VL: B1 VL with H27Q, E35R
B3: huG14-205 (antibody, V domains shown)
VH: B1 VH
VL: B1 VL with E35K, I94V
B4: huG14-227 (antibody, V domains shown)
VH: B1 VH with M34G, Y104N
VL: B1 VL with E35R, I94V
B5: huG14-224 (antibody, V domains shown)
VH: B1 VH with Y104N
VL: B1 VL with E35R
B6: huG14-225 (antibody, V domains shown)
VH: B1 VH with M34G, Y104N
VL: B1 VL
B7: huG14-231 (antibody, V domains shown)
VH: B1 VH with M34G, Y104N
VL: B1 VL with E35R
B8: huG14-218 (antibody, V domains shown)
VH: B1 VH with Y104N
VL: B1 VL
B9: huG14-213 (antibody, V domains shown)
VH: B1 VH with M34G
VL: B1 VL with E35R, I94V
B10: huG14-206 (antibody, V domains shown)
VH: B1 VH
VL: B1 VL with E35R, I94V
B11: huG14-208 (antibody, V domains shown)
VH: B1 VH
VL: B1 VL with H27Q, E35R
B12: huG14-233 (antibody, V domains shown)
VH: B1 VH with M34G, Y104N
VL: B1 VL with S10R, E35R, Q105I
B13: huG14-214 (antibody, V domains shown)
VH: B1 VH with M34G
VL: B1 VL with H27Q, E35K
B14: huG14-211 (antibody, V domains shown)
VH: B1 VH with M34G
VL: B1 VL
B15: huG14-226 (antibody, V domains shown)
VH: B1 VH with M34G, Y104N
VL: B1 VL with E35K, I94V
B16: huG14-220 (antibody, V domains shown)
VH: B1 VH with Y104N
VL: B1 VL with E35R, I94V
B17: huG14-223 (antibody, V domains shown)
VH: B1 VH with Y104N
VL: B1 VL with E35K
B18: huG14-215 (antibody, V domains shown)
VH: B1 VH with M34G
VL: B1 VL with H27Q, E35R
B19: huG14-221 (antibody, V domains shown)
VH: B1 VH with Y104N
VL: B1 VL with H27Q, E35K
B20: huG14-209 (antibody, V domains shown)
VH: B1 VH
VL: B1 VL with E35K
B21: huG14-229 (antibody, V domains shown)
VH: B1 VH with M34G, Y104N
VL: B1 VL with H27Q, E35R
B22: huG14-207 (antibody, V domains shown)
VH: B1 VH
VL: B1 VL with H27Q, E35K
B23: huG14-212 (antibody, V domains shown)
VH: B1 VH with M34G
VL: B1 VL with E35K, I94V
B24: huG14-219 (antibody, V domains shown)
VH: B1 VH with Y104N
VL: B1 VL with E35K, I94V
B25: huG14-228 (antibody, V domains shown)
VH: B1 VH with M34G, Y104N
VL: B1 VL with H27Q, E35K
B26: huG14-210 (antibody, V domains shown)
VH: B1 VH
VL: B1 VL with E35R
B27: huG14-137 (antibody, V domains shown)
VH: B1 VH with M34G, Y104N
VL: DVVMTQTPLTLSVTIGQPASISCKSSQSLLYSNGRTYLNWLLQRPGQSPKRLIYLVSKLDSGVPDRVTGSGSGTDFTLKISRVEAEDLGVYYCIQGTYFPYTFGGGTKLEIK
B28: huG14-138 (antibody, V domains shown)
VH: B1 VH with M34G, Y104N
VL: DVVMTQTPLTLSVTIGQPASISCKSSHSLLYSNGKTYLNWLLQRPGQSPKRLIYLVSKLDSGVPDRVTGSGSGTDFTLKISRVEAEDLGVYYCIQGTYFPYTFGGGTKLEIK
B29: huG14-139 (antibody, V domains shown)
VH: B1 VH with M34G, Y104N
VL: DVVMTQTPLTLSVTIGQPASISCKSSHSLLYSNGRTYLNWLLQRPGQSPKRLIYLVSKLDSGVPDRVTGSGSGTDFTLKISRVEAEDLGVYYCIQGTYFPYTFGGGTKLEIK
B30: huG14-126 (antibody, V domains shown)
VH: B1 VH with Y104N
VL: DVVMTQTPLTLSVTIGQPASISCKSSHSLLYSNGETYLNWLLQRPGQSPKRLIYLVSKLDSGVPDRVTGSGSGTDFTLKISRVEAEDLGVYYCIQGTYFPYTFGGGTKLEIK
B31: huG14-116 (antibody, V domains shown)
VH: B1 VH
VL: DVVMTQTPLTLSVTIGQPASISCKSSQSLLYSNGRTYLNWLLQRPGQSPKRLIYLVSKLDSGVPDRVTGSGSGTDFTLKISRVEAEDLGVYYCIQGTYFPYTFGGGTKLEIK
B32: huG14-135 (antibody, V domains shown)
VH: B1 VH with M34G, Y104N
VL: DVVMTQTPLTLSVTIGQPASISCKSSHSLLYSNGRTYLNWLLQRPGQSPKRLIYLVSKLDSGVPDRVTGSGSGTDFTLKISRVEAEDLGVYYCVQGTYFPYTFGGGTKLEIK
B33: huG14-112 (antibody, V domains shown)
VH: B1 VH
VL: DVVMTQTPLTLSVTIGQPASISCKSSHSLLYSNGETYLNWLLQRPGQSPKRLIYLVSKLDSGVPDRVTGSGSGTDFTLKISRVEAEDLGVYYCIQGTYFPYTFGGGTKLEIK
B34: huG14-121 (antibody, V domains shown)
VH: B1 VH with M34G
VL: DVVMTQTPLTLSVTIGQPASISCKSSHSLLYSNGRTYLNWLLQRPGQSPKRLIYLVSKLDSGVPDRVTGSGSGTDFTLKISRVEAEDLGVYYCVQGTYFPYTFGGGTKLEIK
B35: huG14-119 (antibody, V domains shown)
VH: B1 VH with M34G
VL: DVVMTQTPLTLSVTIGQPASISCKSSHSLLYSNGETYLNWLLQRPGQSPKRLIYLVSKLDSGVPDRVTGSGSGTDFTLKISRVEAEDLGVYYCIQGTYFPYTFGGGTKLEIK
B36: huG14-120 (antibody, V domains shown)
VH: B1 VH with M34G
VL: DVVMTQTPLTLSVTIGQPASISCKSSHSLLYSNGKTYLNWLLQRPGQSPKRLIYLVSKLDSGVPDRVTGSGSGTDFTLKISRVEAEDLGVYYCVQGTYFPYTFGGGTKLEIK
B37: huG14-127 (antibody, V domains shown)
VH: B1 VH with Y104N
VL: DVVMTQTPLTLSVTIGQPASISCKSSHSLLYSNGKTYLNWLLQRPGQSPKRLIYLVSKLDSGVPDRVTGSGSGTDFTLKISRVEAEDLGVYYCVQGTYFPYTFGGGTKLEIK
B38: huG14-129 (antibody, V domains shown)
VH: B1 VH with Y104N
VL: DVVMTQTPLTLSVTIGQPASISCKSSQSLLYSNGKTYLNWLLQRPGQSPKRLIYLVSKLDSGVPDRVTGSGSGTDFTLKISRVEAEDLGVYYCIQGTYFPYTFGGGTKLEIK
B39: huG14-128 (antibody, V domains shown)
VH: B1 VH with Y104N
VL: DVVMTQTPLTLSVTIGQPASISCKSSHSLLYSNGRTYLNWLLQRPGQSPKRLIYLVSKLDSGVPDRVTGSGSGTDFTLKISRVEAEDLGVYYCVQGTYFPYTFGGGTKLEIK
B40: huG14-118 (antibody, V domains shown)
VH: B1 VH
VL: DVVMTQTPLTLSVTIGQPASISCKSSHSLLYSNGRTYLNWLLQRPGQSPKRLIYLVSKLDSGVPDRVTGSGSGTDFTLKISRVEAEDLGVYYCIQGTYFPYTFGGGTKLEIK
B41: huG14-132 (antibody, V domains shown)
VH: B1 VH with Y104N
VL: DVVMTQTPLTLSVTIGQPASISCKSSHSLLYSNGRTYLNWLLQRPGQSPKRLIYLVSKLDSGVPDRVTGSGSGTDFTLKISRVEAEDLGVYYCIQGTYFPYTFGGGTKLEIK
B42: huG14-123 (antibody, V domains shown)
VH: B1 VH with M34G
VL: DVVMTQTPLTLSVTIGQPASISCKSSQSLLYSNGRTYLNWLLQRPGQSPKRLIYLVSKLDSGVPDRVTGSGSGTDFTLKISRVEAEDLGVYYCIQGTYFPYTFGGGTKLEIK
B43: huG14-117 (antibody, V domains shown)
VH: B1 VH
VL: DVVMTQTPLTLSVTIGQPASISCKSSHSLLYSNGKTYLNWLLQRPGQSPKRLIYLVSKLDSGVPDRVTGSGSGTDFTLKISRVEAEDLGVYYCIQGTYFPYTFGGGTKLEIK
B44: huG14-114 (antibody, V domains shown)
VH: B1 VH
VL: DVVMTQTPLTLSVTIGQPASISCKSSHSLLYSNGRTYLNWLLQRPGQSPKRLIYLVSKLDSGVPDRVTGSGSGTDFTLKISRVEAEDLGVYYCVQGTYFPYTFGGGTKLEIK
B45: huG14-115 (antibody, V domains shown)
VH: B1 VH
VL: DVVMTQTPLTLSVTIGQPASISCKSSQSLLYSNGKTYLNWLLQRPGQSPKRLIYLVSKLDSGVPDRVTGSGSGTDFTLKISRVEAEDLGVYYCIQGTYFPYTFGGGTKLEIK
B46: huG14-134 (antibody, V domains shown)
VH: B1 VH with M34G, Y104N
VL: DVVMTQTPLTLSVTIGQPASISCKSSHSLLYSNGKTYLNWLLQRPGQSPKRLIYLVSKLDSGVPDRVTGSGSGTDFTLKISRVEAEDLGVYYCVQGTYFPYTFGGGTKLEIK
B47: huG14-113 (antibody, V domains shown)
VH: B1 VH
VL: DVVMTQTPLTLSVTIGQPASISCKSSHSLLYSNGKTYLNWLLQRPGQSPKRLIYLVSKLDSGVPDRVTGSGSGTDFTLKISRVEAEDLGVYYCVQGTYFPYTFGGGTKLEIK
B48: huG14-122 (antibody, V domains shown)
VH: B1 VH with M34G
VL: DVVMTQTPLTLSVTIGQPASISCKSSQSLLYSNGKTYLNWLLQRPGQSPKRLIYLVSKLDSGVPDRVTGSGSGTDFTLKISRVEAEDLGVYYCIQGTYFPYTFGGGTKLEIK
B49: huG14-133 (antibody, V domains shown)
VH: B1 VH with M34G, Y104N
VL: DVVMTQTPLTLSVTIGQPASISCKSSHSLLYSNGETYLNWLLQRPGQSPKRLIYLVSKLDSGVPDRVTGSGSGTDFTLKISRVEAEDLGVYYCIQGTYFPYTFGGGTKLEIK
B50: huG14-136 (antibody, V domains shown)
VH: B1 VH with M34G, Y104N
VL: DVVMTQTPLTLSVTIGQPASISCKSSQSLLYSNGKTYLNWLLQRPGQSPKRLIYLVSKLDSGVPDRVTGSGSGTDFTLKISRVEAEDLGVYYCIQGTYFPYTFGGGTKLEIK

Substitutions are numbered along the chain they refer to. Several values for one entry are separate records, joined by “and”; a condition that tells them apart may be missing. Identical values can stand only once.

The target of the first test is CD24(27-56aa)-GST NEOX-4 (human). The experiment in a line: ELISA.
Chain of CD24(27-56aa)-GST NEOX-4 (human) (chain, as listed by the source): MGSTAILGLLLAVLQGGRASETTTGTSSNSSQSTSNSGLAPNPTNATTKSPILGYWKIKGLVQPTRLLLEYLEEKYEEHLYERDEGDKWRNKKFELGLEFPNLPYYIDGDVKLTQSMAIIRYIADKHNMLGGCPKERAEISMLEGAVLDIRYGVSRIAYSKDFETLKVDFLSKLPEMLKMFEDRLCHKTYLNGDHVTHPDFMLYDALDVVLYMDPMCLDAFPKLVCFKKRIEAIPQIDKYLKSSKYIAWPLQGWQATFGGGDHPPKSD
With B1, a half-maximal effect (EC50) was put at 6.67 ng/mL.

For the molecule B2, the EC50 (commonly the concentration giving half of the maximal effect) turned out to be 4.91 ng/mL.

B3 returned an EC50 of 6.28 ng/mL.

In the case of B4, the EC50 is 7.63 ng/mL.

B5 yielded an EC50 of 6.18 ng/mL.

On to B6, for which the midpoint of the response, the EC50, lay at 6.28 ng/mL.

B7 had an EC50 of 8.25 ng/mL.

Consider B8, for which the EC50 was 4.71 ng/mL.

B9: the EC50 was found to be 3.29 ng/mL.

B10: a half-maximal response (EC50) required 4.92 ng/mL.

The molecule B11 had an EC50 of 4.02 ng/mL.

Take B12: a half-maximal response (EC50) required 8.41 ng/mL.

Molecule B13 had an EC50 of 3.06 ng/mL.

As to B14, the midpoint of the response, the EC50, lay at 3.34 ng/mL.

Turning to B15, the EC50 amounted to 10.7 ng/mL.

B16 returned an EC50 of 5.17 ng/mL.

Regarding B17, the EC50 stood at 4.82 ng/mL.

In turn, B18 showed an EC50 of 3.41 ng/mL.

In turn, B19 came in with a 50% effective concentration (EC50) of 5.93 ng/mL.

Regarding B20, the EC50 was 4.13 ng/mL.

The molecule B21 registered an EC50 of 9.1 ng/mL.

As for B22, it took 5.71 ng/mL to reach a half-maximal effect (EC50).

As to B23, the EC50 came out at 3.19 ng/mL.

Turning to B24, the response was half-maximal at 5.69 ng/mL (EC50).

B25 showed an EC50 of 9.88 ng/mL.

Regarding B26, the midpoint of the response, the EC50, lay at 4.26 ng/mL.

The next test has the same target. Nature of the test: ELISA. This is another data set of the same source.
With B27, the EC50 amounted to 3.87 ng/mL.

In turn, B28 returned an EC50 of 3.28 ng/mL.

With B29, a half-maximal response (EC50) required 3.17 ng/mL.

B30 registered an EC50 of 3.93 ng/mL.

B31 displayed an EC50 of 11.2 ng/mL.

B32 registered an EC50 of 3.87 ng/mL.

In turn, B33 yielded an EC50 of 12.1 ng/mL.

For B34, the EC50 was 7.37 ng/mL and 7.04 ng/mL.

B35 yielded an EC50 of 8.93 ng/mL.

B36 showed an EC50 of 6.23 ng/mL.

For B37, the EC50 was found to be 2.97 ng/mL.

In the case of B38, the EC50 is 4.09 ng/mL.

Molecule B39 returned an EC50 of 4.12 ng/mL.

Turning to B40, the EC50 was 4.83 ng/mL.

B41 came in with an EC50 of 4.72 ng/mL.

In the case of B42, the EC50 was 3.86 ng/mL.

B43 registered an EC50 of 7.27 ng/mL.

The molecule B44 registered an EC50 of 10.4 ng/mL.

B45 displayed an EC50 of 12.9 ng/mL.

As for B46, the EC50 was found to be 3.83 ng/mL.

In the case of B47, it took 11.9 ng/mL to reach a half-maximal effect (EC50).

Molecule B48 had an EC50 of 7.12 ng/mL.

For B49, it took 5.66 ng/mL to reach a half-maximal effect (EC50).

B50 gave an EC50 of 4.05 ng/mL.
